Source: the Human Domainome abundance scans (Beltran et al. 2025)
± gives the uncertainty stated by the source.

B1: Ras GTPase-activating protein 1, residues 281 to 341; numbered along this chain, P20936 (parent)
chain: RRRVRAILPYTKVPDTDEISFLKGDMFIVHNELEDGWMWVTNLRTDEQGLIVEDLVEEVGR

Variants of: B1
Assay: abundance fitness (aPCA) (normalised: wild type 0, dead -1); higher = more abundant; growth selection in yeast, the domain comes from the species named
Details: Homo sapiens

Which abundance fitness does the source give for RRRVRAILPYTKVPDTDEISFLKGDMFIVHNELEDGWMWVTNLRTDEQGLIVEDLVEEVGN [R61N] here?
Its abundance fitness is 0.02 ± 0.033.

With RRRVRAILPYTKVPDTDEISFLKGDMFIVHNELEDGWMWVTNLRTDEQGLCVEDLVEEVGR [I51C] as the variant, how does the abundance fitness read?
The abundance fitness was -0.401 ± 0.03.

For RRRVYAILPYTKVPDTDEISFLKGDMFIVHNELEDGWMWVTNLRTDEQGLIVEDLVEEVGR [R5Y], which abundance fitness is on record?
The abundance fitness was -0.331 ± 0.03.

Which abundance fitness does the source give for RRRVNAILPYTKVPDTDEISFLKGDMFIVHNELEDGWMWVTNLRTDEQGLIVEDLVEEVGR [R5N] here?
Its abundance fitness is -0.754 ± 0.044.

Which abundance fitness does the source give for RRRVRAILPYTKVPDTDEISFLKGDMFIVHNELEDGWMWVLNLRTDEQGLIVEDLVEEVGR [T41L] here?
The abundance fitness was -0.357 ± 0.033.

For RRRVRAILPYTKVPDTDEISFLKGDMFIVHNELEDGWMWVGNLRTDEQGLIVEDLVEEVGR [T41G], which abundance fitness is on record?
Its abundance fitness is -0.941 ± 0.046.

Which abundance fitness does the source give for RRRVRAILPYTKVPDTDEISFLKGDMFIVHNELEDGWMWVTNLSTDEQGLIVEDLVEEVGR [R44S] here?
The abundance fitness was -0.207 ± 0.026.

For RRRVRAILPYTKVPDTDEISFLKYDMFIVHNELEDGWMWVTNLRTDEQGLIVEDLVEEVGR [G24Y], which abundance fitness is on record?
The abundance fitness was -0.297 ± 0.033.

For RRRVRAILPYTKVPDTDEISFLKGDMFIVHNELEAGWMWVTNLRTDEQGLIVEDLVEEVGR [D35A], which abundance fitness is on record?
Its abundance fitness is -0.024 ± 0.039.

With RRRVRAILPYTKVPCTDEISFLKGDMFIVHNELEDGWMWVTNLRTDEQGLIVEDLVEEVGR [D15C] as the variant, how does the abundance fitness read?
The abundance fitness was -0.126 ± 0.029.

With RRRVRAILPYTKVPPTDEISFLKGDMFIVHNELEDGWMWVTNLRTDEQGLIVEDLVEEVGR [D15P] as the variant, how does the abundance fitness read?
The abundance fitness was -0.819 ± 0.071.

Which abundance fitness does the source give for RRRVRAILPYTKVPDTDEISFLKGDMFIVHNELEDGWMWVTELRTDEQGLIVEDLVEEVGR [N42E] here?
Its abundance fitness is -0.698 ± 0.11.

Which abundance fitness does the source give for RRRVRAILPYTKVPDTDEISFLKGDHFIVHNELEDGWMWVTNLRTDEQGLIVEDLVEEVGR [M26H] here?
Its abundance fitness is -0.061 ± 0.034.

For RRRVRAILPYTKVPDTDEMSFLKGDMFIVHNELEDGWMWVTNLRTDEQGLIVEDLVEEVGR [I19M], which abundance fitness is on record?
The abundance fitness was -0.316 ± 0.048.

Which abundance fitness does the source give for RRRVRAILPYTKVPDTDEESFLKGDMFIVHNELEDGWMWVTNLRTDEQGLIVEDLVEEVGR [I19E] here?
The abundance fitness was -0.881 ± 0.14.

With RRRVRAILPYTKVPDTDEKSFLKGDMFIVHNELEDGWMWVTNLRTDEQGLIVEDLVEEVGR [I19K] as the variant, how does the abundance fitness read?
The abundance fitness was -0.934 ± 0.13.

With RRRVRAILPYTKVPDTDELSFLKGDMFIVHNELEDGWMWVTNLRTDEQGLIVEDLVEEVGR [I19L] as the variant, how does the abundance fitness read?
The abundance fitness was -0.004 ± 0.03.

For RRRVRAILPYTKVPDTDEISFLKGDMFIVHNELEDGWMWVTNLRTDEQGLIHEDLVEEVGR [V52H], which abundance fitness is on record?
The abundance fitness was 0.029 ± 0.031.

With RRRVRAILPYTKVPDTDEISFLKGDMFIVHNELEDGWMWVTNLRVDEQGLIVEDLVEEVGR [T45V] as the variant, how does the abundance fitness read?
The abundance fitness was -0.807 ± 0.043.

For RRRVRAILPYTKVPDTDEISFLKGDMFIVHNELEDGWMWVTNLRCDEQGLIVEDLVEEVGR [T45C], which abundance fitness is on record?
The abundance fitness was -0.771 ± 0.038.

For RRRVRAILPYTKVPDTDEISFLKGDMFIVHNELEDGWMWVTNLRYDEQGLIVEDLVEEVGR [T45Y], which abundance fitness is on record?
The abundance fitness was -0.841 ± 0.045.

For RRRVRAILPYTKVPDTDEISFLKGDMFIVHNELEDGWMWVTNLRTDEQGLIVEPLVEEVGR [D54P], which abundance fitness is on record?
The abundance fitness was -0.175 ± 0.049.

For RRRVRAILPYTKVPDTDEISFLKGDMFIVHNELEDGWMWVTNLRTDEHGLIVEDLVEEVGR [Q48H], which abundance fitness is on record?
Its abundance fitness is -0.048 ± 0.03.

With RRRVRAILPNTKVPDTDEISFLKGDMFIVHNELEDGWMWVTNLRTDEQGLIVEDLVEEVGR [Y10N] as the variant, how does the abundance fitness read?
The abundance fitness was -0.35 ± 0.048.

For RRRVRAIGPYTKVPDTDEISFLKGDMFIVHNELEDGWMWVTNLRTDEQGLIVEDLVEEVGR [L8G], which abundance fitness is on record?
Its abundance fitness is -0.012 ± 0.026.

With RRRVRAILPYTKVPDTDEIQFLKGDMFIVHNELEDGWMWVTNLRTDEQGLIVEDLVEEVGR [S20Q] as the variant, how does the abundance fitness read?
The abundance fitness was -0.828 ± 0.13.

For RRRVRAILPYTKVPDTDEIPFLKGDMFIVHNELEDGWMWVTNLRTDEQGLIVEDLVEEVGR [S20P], which abundance fitness is on record?
Its abundance fitness is -0.639 ± 0.077.

For RRRVRAILIYTKVPDTDEISFLKGDMFIVHNELEDGWMWVTNLRTDEQGLIVEDLVEEVGR [P9I], which abundance fitness is on record?
The abundance fitness was -0.876 ± 0.055.

Which abundance fitness does the source give for RRRVRAILHYTKVPDTDEISFLKGDMFIVHNELEDGWMWVTNLRTDEQGLIVEDLVEEVGR [P9H] here?
The abundance fitness was -0.157 ± 0.036.

For RRRVRAILNYTKVPDTDEISFLKGDMFIVHNELEDGWMWVTNLRTDEQGLIVEDLVEEVGR [P9N], which abundance fitness is on record?
The abundance fitness was -0.101 ± 0.031.

Which abundance fitness does the source give for RRRVRAILFYTKVPDTDEISFLKGDMFIVHNELEDGWMWVTNLRTDEQGLIVEDLVEEVGR [P9F] here?
The abundance fitness was -0.73 ± 0.039.

With RRRVRAILQYTKVPDTDEISFLKGDMFIVHNELEDGWMWVTNLRTDEQGLIVEDLVEEVGR [P9Q] as the variant, how does the abundance fitness read?
The abundance fitness was -0.091 ± 0.12.

For RRRVRAILPYTKVPDTDEISFLKGDMFIVHNELEDLWMWVTNLRTDEQGLIVEDLVEEVGR [G36L], which abundance fitness is on record?
Its abundance fitness is -0.6 ± 0.057.

With RRRVRAILPYTKVPDTDEISFLKGDMFIVHNELEDGWMWVTNLRTDEQGLIVEDLVESVGR [E58S] as the variant, how does the abundance fitness read?
The abundance fitness was -0.064 ± 0.026.

With RRRVRAILPYTKVPDTDEISFLKGDMFIVHNELEDGWMWVTNLRTDEQGLIVEDLVEAVGR [E58A] as the variant, how does the abundance fitness read?
Its abundance fitness is -0.134 ± 0.045.

For RRRVRAILPYTKVPDTDEISSLKGDMFIVHNELEDGWMWVTNLRTDEQGLIVEDLVEEVGR [F21S], which abundance fitness is on record?
Its abundance fitness is -0.908 ± 0.028.

For RRRVRAILPYTKVPDTDQISFLKGDMFIVHNELEDGWMWVTNLRTDEQGLIVEDLVEEVGR [E18Q], which abundance fitness is on record?
Its abundance fitness is 0.047 ± 0.089.

With RRRVRAILPYTKVPDTDEISFLKGDMAIVHNELEDGWMWVTNLRTDEQGLIVEDLVEEVGR [F27A] as the variant, how does the abundance fitness read?
The abundance fitness was -0.901 ± 0.06.

For RRRVRAILPYTKVPDTDEISFLKGDMFIVHNELEDGWMWVTNLRTDEQGLIVEDLVEEVSR [G60S], which abundance fitness is on record?
The abundance fitness was -0.068 ± 0.05.

With RRRVRADLPYTKVPDTDEISFLKGDMFIVHNELEDGWMWVTNLRTDEQGLIVEDLVEEVGR [I7D] as the variant, how does the abundance fitness read?
The abundance fitness was -1.01 ± 0.08.

For RRRVRAQLPYTKVPDTDEISFLKGDMFIVHNELEDGWMWVTNLRTDEQGLIVEDLVEEVGR [I7Q], which abundance fitness is on record?
Its abundance fitness is -0.473 ± 0.11.

For RRRMRAILPYTKVPDTDEISFLKGDMFIVHNELEDGWMWVTNLRTDEQGLIVEDLVEEVGR [V4M], which abundance fitness is on record?
Its abundance fitness is -0.074 ± 0.032.

With RRRNRAILPYTKVPDTDEISFLKGDMFIVHNELEDGWMWVTNLRTDEQGLIVEDLVEEVGR [V4N] as the variant, how does the abundance fitness read?
Its abundance fitness is -0.865 ± 0.033.

For RRRWRAILPYTKVPDTDEISFLKGDMFIVHNELEDGWMWVTNLRTDEQGLIVEDLVEEVGR [V4W], which abundance fitness is on record?
Its abundance fitness is -0.597 ± 0.038.

With RRRVRAILPYTKVPDTDEISFLKGDMFIVHNELEDGWMWVTNLRTDEQGLIVEDLVEEAGR [V59A] as the variant, how does the abundance fitness read?
The abundance fitness was -0.027 ± 0.032.

For RRRVRAILPYTKVPDTDEISFLKGDMFIVHNELEDGWMWVTNLRTDEQGLIVEDLVEERGR [V59R], which abundance fitness is on record?
Its abundance fitness is -0.372 ± 0.033.
